Values quoted from earlier work in publication PMC4776139, “Extended string-like binding of the phosphorylated HP1α N-terminal tail to the lysine 9-methylated histone H3 tail” (Scientific Reports, 2016).

Test system: H3K9me
Conditions: effect of N-terminal tail phosphorylation
Description: In mice there are three HP1 isoforms, HP1α, HP1β and HP1γ with highly conserved CDs that are thought to share a similar structural feature to interact with H3K9me. By contrast, the CDs of these isoforms are connected to a less-conserved N-terminal tail, which is hypothesized to contribute to their isoform-specific function. In HP1α, in particular, there are four successive serine residues in the N-terminal tail that are constitutively phosphorylated in vivo[13]. […] Howeve ...

B1: HP1α: mouse heterochromatin protein 1 isoform; chromodomain with N-terminal tail (protein, UniProt Q61686 1-191, looked up)
Chromobox protein homolog 5: MGKKTKRTADSSSSEDEEEYVVEKVLDRRMVKGQVEYLLKWKGFSEEHNTWEPEKNLDCPELISEFMKKYKKMKEGENNKPREKSEGNKRKSSFSNSADDIKSKKKREQSNDIARGFERGLEPEKIIGATDSCGDLMFLMKWKDTDEADLVLAKEANVKCPQIVIAFYEERLTWHAYPEDAENKEKESAKS
affinity for H3K9me, in words: its affinity becomes much stronger when the N-terminal tail is phosphorylated
